This is an account of results in patent US20210163606A1 (ATYR PHARMA, published 2021).

Broadly, the EC50 is the concentration giving half of the maximal effect.

Assay [1] has as its target T1, cynomolgus monkey NRP2 on transfected Expi293 cells (cynomolgus monkey).
T1 construct: whole, on cells; Plasmid bought from Origene; transient transfection; also called Cyno NRP2
Briefly: flow cytometry on Cyno NRP2-transfected Expi293 cells. On the procedure:
Binding of a-NRP2 to cynomolgus monkey NRP2-transfected Expi293 cells. Cynomolgus monkey (cyno) NRP2-transfected Expi293 cells were collected by centrifugation at 300 g for 5 minutes, and washed twice by DPBS (with calcium and magnesium, ThermoFisher Cat #14040133).
Washed cells were added to a 96-well V-bottom plate (ThermoFisher Cat #1424572) at 100,000 cells/well in 50 μL of DPBS added with Zombie Violet viability stain (Biolegend Cat #423114, diluted at 1:500). From this step on, cells were protected from light. Cells were kept at room temperature for 10 min and pelleted down at 300 g for 5 minutes at 4° C. Supernatants containing Zombie Violet were discarded, and without washing, 30 uL of antibodies diluted in the flow wash buffer (FWB, DPBS plus 2% FBS and 0.1% sodium azide to inhibit receptor internalization) were added to the cells. For a-NRP2 staining on Cyno NRP2-transfected Expi293 cells, in-house human anti-NRP2 antibodies were tested at final concentrations of 0.006-100 nM at 4-fold dilutions. For each test, NRP2 over-expression on the cell surface was validated by a-NRP2 staining (10 μg/mL R&D #AF567 a-NRP2) in separate wells. Binding was allowed to proceed on ice for 40-60 minutes. Cells were then pelleted at 300 g for 5 minutes at 4° C., supernatants removed, and cells washed twice by adding 150 μL of FWB and centrifuging the cells again in the same conditions. To detect a-NRP2 binding on the cell surface, Cy3-conjugated goat anti-human IgG Fc or AF647-conjugated donkey anti-goat IgG (Jackson ImmunoResearch Cat #109165098 & 705605147) was added to the cells at a final concentration of 3 μg/mL in 30 μL of FWB. After 30-40 minutes of incubation on ice, cells were pelleted at 300 g for 5 minutes at 4° C. and supernatants removed, and the cells were washed twice as described previously. […] Cells were then analyzed on FlowJo analysis software by excluding dead cells and gating singlets.
The EC₅₀ of three anti-NRP2 antibodies, each against a distinct domain of NRP2, were measured for binding to Cyno NRP2-transfected Expi293 cells (see Table E2 and FIG. 4).
A general note: A flow cytometer gives signals particle by particle.

The target in assay [2] is T2, Cynomolgus NRP2 (aa23-854) with C-terminal Fc-tag (cynomolgus monkey).
T2 construct: range 23-854; sensorgrams fitted to a bivalent analyte model; also called Cynomolgus NRP2 antigen protein
Briefly: SPR (ProteOn XPR36), antibody captured on anti-human Fab-kappa, cyno NRP2-Fc as analyte, bivalent analyte fit. On the procedure:
Anti-NRP2 antibody binding and affinity measurements. […] SPR experiments were conducted on a Bio-Rad ProteOn XPR36 Protein Interaction Array instrument. Biotinylated anti-human antibody (ThermoFisher Cat #7103302100) was immobilized on ProteOn NLC sensor chips. Anti-NRP2 antibodies were subsequently flowed over and captured by the anti-human antibody. Cynomolgus NRP2 antigen protein was flowed over the captured antibody at varying concentrations (150, 50, 16.67, 5.56, 1.85 nM). The sensor chip surface was regenerated between each analyte run to remove anti-NRP2 antibodies and NRP2 protein. Data was double referenced against a surface with no anti-NRP2 antibody captured (immobilized anti-human antibody only) and a buffer only blank. Affinity constants were derived by globally fitting sensograms to a bivalent analyte interaction model in the ProteOn manager software. For each anti-NRP2 antibody, data from the multiple NRP2 concentrations was fit as a single data set with dissociation rate constant (kd), association rate constant (kₐ) and Rₘₐₓ values as global parameters. The reported binding affinity is the equilibrium dissociation constant (KD) calculated from kd/kₐ. [0681] Running buffer: 50 mM HEPES, 300 mM NaCl, 5 mM CaCl₂, 0.005% Tween-20, pH 7.4 [0682] Immobilized antibody: CaptureSelect Human Fab-kappa Kinetics Biotin Conjugate, Thermo Fisher Cat #7103302100 [0683] Antigen: Cynomolgus NRP2 (aa23-854) with C-terminal Fc-tag [0684] Regeneration buffer: 10 mM glycine pH 2.0

Assay [3] addresses T3, mouse NRP2 I383V on transfected Expi293 cells (Mouse, UniProt O35375 21-931).
T3 construct: whole, on cells; also called 1383V
T3 sequence (looked up): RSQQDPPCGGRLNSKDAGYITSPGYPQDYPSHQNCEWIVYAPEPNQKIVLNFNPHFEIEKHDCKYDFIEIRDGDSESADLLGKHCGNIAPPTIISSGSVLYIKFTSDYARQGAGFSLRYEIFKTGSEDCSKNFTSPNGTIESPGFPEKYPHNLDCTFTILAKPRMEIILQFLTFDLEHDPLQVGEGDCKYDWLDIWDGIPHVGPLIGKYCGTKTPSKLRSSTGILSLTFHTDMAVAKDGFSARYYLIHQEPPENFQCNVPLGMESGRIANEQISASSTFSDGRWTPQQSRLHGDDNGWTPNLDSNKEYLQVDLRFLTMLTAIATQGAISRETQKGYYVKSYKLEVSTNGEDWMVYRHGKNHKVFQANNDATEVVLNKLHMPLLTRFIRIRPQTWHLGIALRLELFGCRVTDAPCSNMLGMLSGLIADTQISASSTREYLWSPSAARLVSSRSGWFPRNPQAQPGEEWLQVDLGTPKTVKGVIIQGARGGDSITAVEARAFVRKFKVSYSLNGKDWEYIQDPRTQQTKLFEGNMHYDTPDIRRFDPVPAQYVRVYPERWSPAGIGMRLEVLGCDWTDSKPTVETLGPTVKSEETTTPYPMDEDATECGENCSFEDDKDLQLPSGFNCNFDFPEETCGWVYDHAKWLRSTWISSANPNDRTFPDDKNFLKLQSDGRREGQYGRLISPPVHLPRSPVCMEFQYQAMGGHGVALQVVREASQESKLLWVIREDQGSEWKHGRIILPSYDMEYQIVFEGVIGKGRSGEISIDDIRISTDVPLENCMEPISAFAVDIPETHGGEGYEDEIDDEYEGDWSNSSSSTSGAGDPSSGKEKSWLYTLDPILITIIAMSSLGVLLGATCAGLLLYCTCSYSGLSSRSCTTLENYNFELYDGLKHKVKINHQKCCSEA
Briefly: flow cytometry, aNRP2-10v10 at 10 nM on transfected Expi293 cells gated on live, single, NRP2 expressing cells [panel 11B]. On the procedure: FIGS. 11A-11B show the measurement of antibody binding to Expi293 cells over-expressing NRP2. […] Gating for NRP2 over-expressing cells is shown.
Human NRP2a (version 2; see Table N1) and mouse NRP2v2 cDNAs were obtained from Origene. […] Human and mouse NRP2, expression vectors, along with expression vectors encoding all 6 mutants were transfected into Expi293 cells at 1 million cells/mL, by standard techniques. Approximately 40 hours post transfection cells were co-stained with aNRP2-10v10, and a species agnostic anti-NRP2 a1 specific binding antibody.

B1: aNRP2-10v10 (antibody, V domains shown)
VH: EVQLVQSGAEVKKPGATVKISCKVSGFNIKDYYVHWVQQAPGKGLEWMGRIDVEDDETKYAPKFQGRVTITADTSTDTAYMELSSLRSEDTAVYYCATPIYGAREAWFAYWGQGTLVTVSS
VL: DIQMTQSPSSLSASVGDRVTITCTASSSVSSSYLHWYQQKPGKAPKLLIYRTSNLASGVPSRFSGSGSGTDFTLTISSLQPEDFATYYCHQYYRSPPTFGGGTKVEIK
In turn, B1 displayed an EC50 in assay [1] of 2.9 nM. Also, the Kd in assay [2] was 0.032 nM. The binding result in assay [3] is given as “no binding (tested: 10 nM)”.
